Measurements published in patent CN116836274A (DONGGUAN PENGZHI BIOTECHNOLOGY CO LTD, dated 2023).

T1: 血清淀粉样蛋白A (Serum amyloid A, SAA), 购自Yashraj biotechnology limited, 货号FRSAA-61 (UniProt P0DJI8 19-122, limits assumed)
T1 construct: Bought antigen
T1 sequence (looked up): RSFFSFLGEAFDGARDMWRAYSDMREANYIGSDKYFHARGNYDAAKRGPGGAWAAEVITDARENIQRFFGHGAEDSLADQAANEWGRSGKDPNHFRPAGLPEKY


Experiments:
[1] = biological target: 血清淀粉样蛋白A (Serum amyloid A, SAA), 购自Yashraj biotechnology limited, 货号FRSAA-61 (UniProt P0DJI8); experiment: biosensor with AMC sensors, antibody captured at 10 ug/ml, SAA in a dilution series in PBST
[2] = biological target: T1, 血清淀粉样蛋白A (Serum amyloid A, SAA), …; experiment: as above

Molecule | Kd [1] [nM] | koff [1] [s⁻¹] | kon [1] [M⁻¹ s⁻¹] | Kd [2] [nM] | koff [2] [s⁻¹] | kon [2] [M⁻¹ s⁻¹]
Anti-SAA-11A4mut1 (antibody, mouse IgG1, kappa, V domains shown) VH: QVQLQQSGAELVRPGVSVKISCKGSGYTFTDYAMHWVKQSHAKSLEWIGVINTYYGDASYNQKFKGKATMTEDKSSSTVYMELARLTSEDSAIYYCARGSSIMITSWFAYWGQGTLVTVSA VL: DIQMTQSPASLSASVGETVTITCRASENIYSYLAWYQQKQGKSPQLLVYNAKTLAEGVPSRFSGSGSGTQFSLKINSLQPEDFGSYYCQHHYGTPLTFGTGTKLELKR |  |  |  | 0.0322 | 1.12e-06 | 34800
Anti-SAA-11A4mut3 (antibody, V domains shown) VH: QVQLQQSGAELVRPGVSVKISCKGSGYTFTDYAMHWVKQSHAKSLEWIGVINTYYGDASYNQKFKGKATMTEDKSSSTVYMELARLTSEDSAIYYCARGSSIMITSWFAYWGQGTLVTVSA VL: DIQMTQSPASLSASVGETVTITCRASENIYSYLAWYQQKQGKSPQLLVYNAKTLAEGVPSRFSGSGSGTQFSLKINSLQPEDFGSYYCQHHYGTPITFGTGTKLELKR |  |  |  | 0.0386 | 1.3e-06 | 33700

Results, then the molecule that gave them:

Kd [1] [nM] | koff [1] [s⁻¹] | kon [1] [M⁻¹ s⁻¹] | Kd [2] [nM] | koff [2] [s⁻¹] | kon [2] [M⁻¹ s⁻¹] | Molecule
9.01 | 0.000219 | 24300 |  |  |  | 对照 (antibody)
 |  |  | 0.827 | 3.05e-05 | 36900 | Anti-SAA-11A4mut2 (antibody, mouse IgG1, kappa, V domains shown) VH: QVQLQQSGAELVRPGVSVKISCKGSGYTFTDYAMHWVKQSHAKSLEWIGVINTYYGDASYNQKFKGKATMTEDKSSSTVYMELARLTSEDSAIYYCARGSSLMITSWFAYWGQGTLVTVSA VL: DIQMTQSPASLSASVGETVTITCRASENIYSYLAWYQQKQGKSPQLLVYNAKTLAEGVPSRFSGSGSGTQFSLKINSLQPEDFGSYYCQHHYGTPLTFGTGTKLELKR
